{"source": "paper PMC7083227", "key": {"[1]": {"target": "Vγ9Vδ1 TCR (soluble, biotinylated) (human)", "assay": "SPR; BIAcore3000; biotinylated TCRs (2000-3000 RU) captured on streptavidin-coated CM5 chips; BTN IgV domain injected as analyte, 1-200 μM; HBS-EP buffer; equilibrium affinity measurements"}, "[2]": {"target": "MOP Vγ9Vδ2 TCR (soluble, biotinylated) (human)", "assay": "SPR; BIAcore3000; biotinylated TCRs (2000-3000 RU) captured on streptavidin-coated CM5 chips; BTN IgV domain injected as analyte, 1-200 μM; HBS-EP buffer; equilibrium affinity measurements"}, "[3]": {"target": "Vγ9Vδ1 TCR (soluble, biotinylated) (human)", "assay": "SPR; BIAcore3000; biotinylated TCRs (2000-3000 RU) captured on streptavidin-coated CM5 chips; BTN IgV domain injected as analyte, 1-200 μM; HBS-EP buffer; equilibrium affinity measurements", "remark": "listed apart in the source"}, "[4]": {"target": "MOP Vγ9Vδ2 TCR (soluble, biotinylated) (human)", "assay": "SPR; BIAcore3000; biotinylated TCRs (2000-3000 RU) captured on streptavidin-coated CM5 chips; BTN IgV domain injected as analyte, 1-200 μM; HBS-EP buffer; equilibrium affinity measurements", "remark": "listed apart in the source"}, "[5]": {"target": "BTN2A1 peptide on (human)", "assay": "SPR, equilibrium affinity; biotinylated TCR captured on a streptavidin chip, BTN2A1 IgV as analyte; soluble, other"}, "[6]": {"target": "BTN2A1 peptide on (human)", "assay": "SPR, equilibrium affinity and Scatchard analysis; representative experiment of Figure 3B; soluble, other"}, "[7]": {"target": "Vγ9Vδ2 TCR (soluble, biotinylated; clone not stated for this experiment)", "assay": "SPR", "conditions": "parent: est. 1.0; read off a plot"}, "[8]": {"target": "Vγ9Vδ2 TCR (soluble, biotinylated; clone not stated for this experiment) (human)", "assay": "SPR; BIAcore3000; biotinylated TCRs (2000-3000 RU) captured on streptavidin-coated CM5 chips; BTN IgV domain injected as analyte, 1-200 μM; HBS-EP buffer; equilibrium affinity measurements"}, "[9]": {"target": "Vγ9Vδ2 TCR (soluble, biotinylated; clone not stated for this experiment) (human)", "assay": "SPR; BIAcore3000; biotinylated TCRs (2000-3000 RU) captured on streptavidin-coated CM5 chips; BTN IgV domain injected as analyte, 1-200 μM; HBS-EP buffer; equilibrium affinity measurements", "remark": "listed apart in the source"}}, "note": "Where two headings read alike, the source gives them in different places.", "data": [{"substance": "BTN2A1 IgV (from UniProt Q7KYR7 27-142) (domain or fragment)", "values": [{"measurement": "Kd", "setting": "[1]", "result": 47.9, "unit": "µM"}, {"measurement": "Kd", "setting": "[2]", "result": 48.4, "unit": "µM"}, {"measurement": "Kd", "setting": "[3]", "result": 46.6, "unit": "µM"}, {"measurement": "Kd", "setting": "[4]", "result": 49.9, "unit": "µM"}]}, {"substance": "Vγ9Vδ2 MOP TCR", "values": [{"measurement": "Kd", "setting": "[5]", "result": 49.9, "unit": "µM"}, {"measurement": "Kd", "setting": "[6]", "result": 48.4, "unit": "µM"}]}, {"substance": "BTN2A1 IgV (from UniProt Q7KYR7) Y133A", "values": [{"measurement": "ratio to parent", "setting": "[7]", "result": 0.8}]}, {"substance": "BTN2A1 IgV K79A (from UniProt Q7KYR7 27-142) (domain or fragment)", "values": [{"measurement": "Kd", "setting": "[8]", "result": 100, "unit": "µM"}]}, {"substance": "BTN2A1 IgV S72A (from UniProt Q7KYR7 27-142) (domain or fragment)", "values": [{"measurement": "Kd", "setting": "[8]", "result": "11 to 15", "unit": "µM"}, {"measurement": "Kd", "setting": "[9]", "result": "10 to 15", "unit": "µM"}]}]}
